The record followed here is patent publication US20040192900A1.

Assay [1] deals with Fc-CD22 (UniProt P20273). Put plainly: SPR (BIAcore 2000); 2nd mAb on Fc-CD22 without G5/44. A general note: Surface plasmon resonance follows binding to a sensor surface in real time, without labels.
The target of assay [2] is Fc-CD22 (UniProt P20273). Put plainly: SPR (BIAcore 2000); 2nd mAb on Fc-CD22 pre-saturated with G5/44 (competitor G5/44).
Assay [3] concerns the target Fc-CD22 (UniProt P20273). Put plainly: SPR (BIAcore 2000); inhibition of 2nd mAb binding to Fc-CD22 by prior saturation with G5/44 (competitor G5/44).
Assay [4] addresses Fc-CD22 (UniProt P20273). Put plainly: SPR (BIAcore 2000); Fc-CD22 pre-saturated with G5/44 (competitor G5/44); combined response of G5/44 and 2nd mAb.

“anti-CD22 mAb 4KB128 (Dako Corp) (antibody)”: the Binding of 2nd mAb without G544 adjusted for background (RU) with Fc-CD22 [1] was 739 RU. In addition, in the assay with Fc-CD22 [2], the Response 3 (Response 2-1) (RU) amounted to 652 RU and the Response 3 adjusted for OFF rate of G544 (RU) was 736 RU. In addition, in the assay with Fc-CD22 [3], the Inhibition by G544 (%) was determined as 0%. The Response 2 after 2nd Anti-CD22 mAb (RU) in the assay with Fc-CD22 [4] was 1340 RU.

With “anti-CD22 mAb HD239 (Santa Cruz Biotech) (antibody)”, the Binding of 2nd mAb without G544 adjusted for background (RU) with Fc-CD22 [1] was determined as 19.3 RU. In the assay with Fc-CD22 [2], this substance returned a Response 3 (Response 2-1) (RU) of -81.8 RU and a Response 3 adjusted for OFF rate of G544 (RU) of 1.7 RU. Further, in the assay with Fc-CD22 [3], the Inhibition by G544 (%) worked out at 91%. In the assay with Fc-CD22 [4], the Response 2 after 2nd Anti-CD22 mAb (RU) worked out at 629 RU.

For “anti-CD19 antibody BU12 (Celltech, Slough, UK)”, in the assay with Fc-CD22 [2], the Response 3 (Response 2-1) (RU) was -83.5 RU and the Response 3 adjusted for OFF rate of G544 (RU) came out at 0 RU. Besides, the Inhibition by G544 (%) with Fc-CD22 [3] worked out at 0%. The Response 2 after 2nd Anti-CD22 mAb (RU) in the assay with Fc-CD22 [4] turned out to be 603 RU.

In the assay with Fc-CD22 [1], “anti-CD22 mAb To 15 (Dako Corp) (antibody)” gave a Binding of 2nd mAb without G544 adjusted for background (RU) of 615 RU. In the assay with Fc-CD22 [2], this substance gave a Response 3 (Response 2-1) (RU) of 487 RU and a Response 3 adjusted for OFF rate of G544 (RU) of 570 RU. The substance also returned an Inhibition by G544 (%) in the assay with Fc-CD22 [3] of 7%. Moreover, in the assay with Fc-CD22 [4], the Response 2 after 2nd Anti-CD22 mAb (RU) stood at 1160 RU.

In the assay with Fc-CD22 [1], “anti-CD22 mAb SHCL-1, Leu 14 (Becton Dickinson) (antibody)” came in with a Binding of 2nd mAb without G544 adjusted for background (RU) of 29.3 RU. In the assay with Fc-CD22 [2], the Response 3 (Response 2-1) (RU) is -74.5 RU and the Response 3 adjusted for OFF rate of G544 (RU) was 9 RU. For the same substance, the Inhibition by G544 (%) with Fc-CD22 [3] amounted to 69%. In addition, in the assay with Fc-CD22 [4], the Response 2 after 2nd Anti-CD22 mAb (RU) came out at 580 RU.
